Values belong to the binder of their own block, whether it stands above or below them.
How the values were obtained:
[1] = target: Epidermal growth factor receptor I (EGFR) (human) (UniProt P00533); assay: flow cytometry on MDA-MB-468 cells
[2] = target: Epidermal growth factor receptor I (EGFR) (human) (UniProt P00533); assay: flow cytometry saturation binding on EGFR positive cells
[3] = target: Epidermal growth factor receptor I (EGFR) (human) (UniProt P00533); assay: competitive radioligand binding on MDA-MB-468 cells; pre-blocking with 100-fold excess unlabeled 8709-scFv-Fc, tracer ^225Ac-8709-scFv-Fc at 50 nM
[4] = target: T1, Epidermal growth factor receptor I (EGFR) (human, UniProt P00533 25-1210); assay: flow cytometry on MDA-MB-468 cells
T1 construct: whole, on cells; MDA-MB-231 cells also carry EphA2; also called ErbB-1; HER1
Description: (§1) Binding profile of immunoconjugates to MDA-MB468 (high EGFR expression) and MDA-MB-435 (EGFR negative) was studied using flow cytometry. […] A saturation binding curve was performed to determine the binding constants KD at which immunoconjugates bind to the cell.
(§2) In vitro binding to target receptor (e.g. EGFR) positive cells was performed for all immunoconjugates and compared with corresponding unconjugated antibody, and control IgG. […] Target antibodies, control IgG and their respective ADCs were titrated at a minimum of a 10-fold excess onto 1×10⁵ cells. The cell-compound reactions were incubated for 30 minutes at room temperature followed by 15 minutes on ice. Cells were washed and resuspended in a 1:50 dilution of PE or FITC labeled Goat F(ab′)2 fragment anti-human IgG (H+L) antibody (Beckman Coulter, IM0839) and incubated for 30 minutes on ice in the dark. Cells were washed and suspended in 2% FBS-PBS. Data was acquired using a Beckman Coulter Gallios flow cytometer and the results were analysed using FlowJoV10. The binding constant KD for each conjugate were generated using a non-linear regression curve fit with GraphPad prism 6.

[5] = target: T1, Epidermal growth factor receptor I …; assay: flow cytometry saturation binding on EGFR positive cells
Description: as §1, §2

[6] = target: T1, Epidermal growth factor receptor I …; assay: flow cytometry saturation binding on MDA-MB-468 cells
Description: as §1, §2

[7] = target: T1, Epidermal growth factor receptor I …; assay: saturation radioligand binding assay on MDA-MB-468 cells

B1: 8709-scFv-Fc (Fc fusion, part only; not given: Linker, domain order, hinge and Fc, not shown: another chain or arm of the molecule; a dimerising Fc or GST; small tags and cut ends)
VH: EVQLVESGGGLVQPGGSLRLSCAASGFNLYSSSMHWVRQAPGKGLEWVASIYPYSGYTYYADSVKGRFTISADTSKNTAYLQMNSLRAEDTAVYYCARYPFGVSAYYAMDYWGQGTLVTVSS
VL: DIQMTQSPSSLSASVGDRVTITCRASQSVSSAVAWYQQKPGKAPKLLIYSASSLYSGVPSRFSGSRSGTDFTLTISSLQPEDFATYYCQQSYWLITFGQGTKVEIK
% binding [1]: > 90% | Kd [2]: 1.1 nM | fold reduction in the binding of ^225Ac-8709-scFv-Fc to EGFR [3]: 23.2 fold

B2: 8709-scFv-Fc-PEG6-DM1 (Fc fusion)
VH: EVQLVESGGGLVQPGGSLRLSCAASGFNLYSSSMHWVRQAPGKGLEWVASIYPYSGYTYYADSVKGRFTISADTSKNTAYLQMNSLRAEDTAVYYCARYPFGVSAYYAMDYWGQGTLVTVSS
VL: DIQMTQSPSSLSASVGDRVTITCRASQSVSSAVAWYQQKPGKAPKLLIYSASSLYSGVPSRFSGSRSGTDFTLTISSLQPEDFATYYCQQSYWLITFGQGTKVEIKR
modifications: PEG6-DM1 conjugated via NHS (drug to antibody ratio 3.5), sites not stated
% binding [4]: > 90% | Kd [5]: 4.2 nM

Other lines, results leading:

fold higher KD value as compared to 8709-scFv-Fc [6]: 10.4 fold | Kd [5]: 11.3 nM
B3: Macropa-8709-scFv-Fc (Fc fusion)
VH: EVQLVESGGGLVQPGGSLRLSCAASGFNLYSSSMHWVRQAPGKGLEWVASIYPYSGYTYYADSVKGRFTISADTSKNTAYLQMNSLRAEDTAVYYCARYPFGVSAYYAMDYWGQGTLVTVSS
VL: DIQMTQSPSSLSASVGDRVTITCRASQSVSSAVAWYQQKPGKAPKLLIYSASSLYSGVPSRFSGSRSGTDFTLTISSLQPEDFATYYCQQSYWLITFGQGTKVEIKR
modifications: macropa chelator conjugated via macropa-NCS, sites not stated

Kd [7]: 14.5 nM
B4: ^225Ac-8709-scFv-Fc (Fc fusion)
VH: EVQLVESGGGLVQPGGSLRLSCAASGFNLYSSSMHWVRQAPGKGLEWVASIYPYSGYTYYADSVKGRFTISADTSKNTAYLQMNSLRAEDTAVYYCARYPFGVSAYYAMDYWGQGTLVTVSS
VL: DIQMTQSPSSLSASVGDRVTITCRASQSVSSAVAWYQQKPGKAPKLLIYSASSLYSGVPSRFSGSRSGTDFTLTISSLQPEDFATYYCQQSYWLITFGQGTKVEIKR
modifications: macropa chelator with ^225Ac, sites not stated
